Positions of bridges follow the written chain, without caps; N, C: chain ends.

The target in this test is ACE-2 (human). As to the kind of experiment: other, ACE-2 enzyme inhibition.
Sequence of ACE-2 (human) (Q9BYF1 1-740): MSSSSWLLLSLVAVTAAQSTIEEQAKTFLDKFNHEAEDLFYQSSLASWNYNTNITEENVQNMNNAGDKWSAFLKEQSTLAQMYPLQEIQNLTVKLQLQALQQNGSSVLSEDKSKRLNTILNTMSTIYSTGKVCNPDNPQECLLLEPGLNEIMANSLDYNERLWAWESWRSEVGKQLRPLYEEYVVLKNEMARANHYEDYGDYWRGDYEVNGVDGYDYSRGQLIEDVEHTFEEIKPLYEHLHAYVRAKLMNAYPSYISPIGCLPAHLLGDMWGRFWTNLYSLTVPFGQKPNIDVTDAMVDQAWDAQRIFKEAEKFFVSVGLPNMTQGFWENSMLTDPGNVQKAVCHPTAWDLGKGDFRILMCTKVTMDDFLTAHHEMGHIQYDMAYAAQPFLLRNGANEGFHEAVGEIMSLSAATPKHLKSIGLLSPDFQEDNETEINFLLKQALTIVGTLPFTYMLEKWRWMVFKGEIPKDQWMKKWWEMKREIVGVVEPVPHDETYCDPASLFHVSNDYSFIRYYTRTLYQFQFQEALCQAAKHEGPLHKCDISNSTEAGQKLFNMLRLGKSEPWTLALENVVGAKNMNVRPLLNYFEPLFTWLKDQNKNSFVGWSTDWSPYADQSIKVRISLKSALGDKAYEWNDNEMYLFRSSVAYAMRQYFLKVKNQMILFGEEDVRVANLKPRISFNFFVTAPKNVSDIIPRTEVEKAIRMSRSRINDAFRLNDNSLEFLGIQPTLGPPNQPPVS

B1: DX-512 (peptide)
chain: Ac-GDRLHCKPQRQSPWMKCQHLDPEGGG-NH2
modifications: disulfide 6-17 (inferred)
On to B1, for which the Ki (as a rule, the equilibrium dissociation constant of an inhibitor or competing ligand from its target) was found to be 150 nM.

B2: DX-513 (peptide)
chain: Ac-GDLHACRPVRGDPWWACTLGDPEGGG-NH2
modifications: disulfide 6-17 (inferred)
The molecule B2 showed an inhibition constant Ki of 150 nM.

(Values after patent publication US6900033 (dated 2005).)
